This series has as its system Saccharomyces cerevisiae. Briefly: protein stability index of tFT-peptide fusion (C-terminal peptide) (PSI (0-1 scale)); higher = more stable (slower turnover). As to conditions: temperature: 30 C. As to the method: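 MPS profiling in S. cerevisiae of the yeast C-terminome library: the last 12 aa of each annotated ORF are fused to the C-terminus of a sfGFP-mCherry timer, after a GGGS linker. Cells are FACS-sorted into 8 mCherry/sfGFP bins and deep-sequenced. PSI runs from 0 (unstable) to 1 (stable); wild type and das1Δ backgrounds, two technical replicates each.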

Where [1] appears, read: genetic background: das1 deletion.

± gives the standard deviation of the averaged measurements.

For the sequence AGHSNTLQVSTV [CDC19 C-terminal 12 aa], the protein stability index under setting [1] is 0.705 ± 0.0082 and the protein stability index (genetic background: wild type) amounted to 0.687 ± 0.014.
On the same counts, the results for AILREVQFEVFR [NTA1 C-terminal 12 aa] are 0.699 ± 0.019 and 0.7068 ± 0.00076.
Turning to AIRRGLTKKNEK [GDE1 C-terminal 12 aa], the protein stability index runs as follows: under setting [1], 0.72 ± 0.013; (genetic background: wild type) 0.65687 ± 0.00059.
The corresponding values for AIYPVLSEFRKM [SPT15 C-terminal 12 aa] are 0.701 ± 0.0082 and 0.706 ± 0.074.
The corresponding values for AKEESSDSENET [CDC123 C-terminal 12 aa] are 0.6497 ± 0.004 and 0.703 ± 0.091.
The corresponding values for AKEWDLEDPKSM [TAF9 C-terminal 12 aa] are 0.7024 ± 0.0067 and 0.726 ± 0.057.
Consider AKSEDISCVLII [YPL238C C-terminal 12 aa], for which the protein stability index under setting [1] was 0.711 ± 0.025 and the protein stability index (genetic background: wild type) is 0.646 ± 0.022.
The corresponding values for AKYALLEVLKVS [YOR102W C-terminal 12 aa] are 0.581 ± 0.0095 and 0.187 ± 0.017.
The corresponding values for AKYSKKKNNKNK [DEG1 C-terminal 12 aa] are 0.689 ± 0.043 and 0.668 ± 0.021.
The corresponding values for ALCICCTMDMLF [YBR016W C-terminal 12 aa] are 0.6355 ± 0.0054 and 0.645 ± 0.048.
Regarding ALDAELDAYMKG [YRA2 C-terminal 12 aa], the protein stability index by setting is: under setting [1], 0.67911 ± 5.2e-05; (genetic background: wild type) 0.7 ± 0.0058.
The corresponding values for ALDAVDDAIILD [GET1 C-terminal 12 aa] are 0.716 ± 0.0098 and 0.659 ± 0.021.
ALLDPSDTLNFM [RDR1 C-terminal 12 aa]: the protein stability index under setting [1] turned out to be 0.697 ± 0.024 and the protein stability index (genetic background: wild type) is 0.704 ± 0.055.
ALNDIAKASYIY [CTK3 C-terminal 12 aa]: the protein stability index by setting is: under setting [1], 0.677 ± 0.034; (genetic background: wild type) 0.648 ± 0.016.
For the sequence ALNTYSSGFEIA [GID10 C-terminal 12 aa], the protein stability index reads like this: under setting [1], 0.661 ± 0.0013; (genetic background: wild type) 0.676 ± 0.02.
On to ALSADGIYTIAN [PAU5 C-terminal 12 aa], for which the protein stability index by setting is: under setting [1], 0.71 ± 0.0096; (genetic background: wild type) 0.6966 ± 0.0031.
On the same counts, the results for ALVGIFVLAFFN [HPF1 C-terminal 12 aa] are 0.29 ± 0.043 and 0.251 ± 0.0084.
The corresponding values for AMFNDIWKNANE [UPS3 C-terminal 12 aa] are 0.7263 ± 0.0062 and 0.711 ± 0.015.
On the same counts, the results for ANCNTADCLEDH [COT1 C-terminal 12 aa] are 0.6866 ± 0.0051 and 0.708 ± 0.012.
The sequence ANLRAYFGPGFT [BUD6 C-terminal 12 aa] gave a protein stability index under setting [1] of 0.719 ± 0.017 and a protein stability index (genetic background: wild type) of 0.691 ± 0.0094.
Consider AQLLAYLMHKSN [LPL1 C-terminal 12 aa], for which the protein stability index by setting is: under setting [1], 0.714 ± 0.013; (genetic background: wild type) 0.252 ± 0.013.
The corresponding values for ASFENETVKANV [RFC3 C-terminal 12 aa] are 0.706 ± 0.019 and 0.704 ± 0.0078.
As to ASKESSKEDVAN [MUM2 C-terminal 12 aa], the protein stability index runs as follows: under setting [1], 0.69 ± 0.0096; (genetic background: wild type) 0.661 ± 0.032.
As to ASQAKNSIEDDV [GTR2 C-terminal 12 aa], the protein stability index is, setting by setting: under setting [1], 0.721 ± 0.021; (genetic background: wild type) 0.689 ± 0.031.
On the same counts, the results for ASREREKRRQSE [VAN1 C-terminal 12 aa] are 0.724 ± 0.0075 and 0.76362 ± 0.00071.
Take ATAREWTKKYAV [UBC4 C-terminal 12 aa]: the protein stability index turned out to be 0.702 ± 0.0071 under setting [1] and 0.7122 ± 0.0016 (genetic background: wild type).
As for ATCGSSTYFARK [MCO8 C-terminal 12 aa], the protein stability index worked out at 0.6938 ± 0.0026 under setting [1] and 0.746 ± 0.054 (genetic background: wild type).
The corresponding values for “ATPQKRTGPARG [YER088C-A C-terminal 12 aa]” are 0.68 ± 0.018 and 0.66 ± 0.018.
For ATSILLWYSNYS [CNM1 C-terminal 12 aa], the protein stability index turned out to be 0.739 ± 0.013 under setting [1] and 0.6973 ± 0.00096 (genetic background: wild type).
On the same counts, the results for AVIGVYGEGQFI [ATG33 C-terminal 12 aa] are 0.6986 ± 0.0067 and 0.693 ± 0.049.
Turning to AVNTLLWQEQYS [YDR042C C-terminal 12 aa], the protein stability index reads like this: under setting [1], 0.739 ± 0.017; (genetic background: wild type) 0.751 ± 0.13.
The corresponding values for AWSYLARQVLYY [YGR176W C-terminal 12 aa] are 0.6986 ± 0.0046 and 0.688 ± 0.032.
Regarding AYEFDGDKVIVG [RIP1 C-terminal 12 aa], the protein stability index came to 0.704 ± 0.018 under setting [1] and 0.6846 ± 0.0025 (genetic background: wild type).
AYSLQEGSVVAI [SIF2 C-terminal 12 aa]: the protein stability index runs as follows: under setting [1], 0.7139 ± 0.0064; (genetic background: wild type) 0.696 ± 0.047.

The values are drawn from the supplement of paper PMC10724198.
